Test results from IntAct's records for PubMed 22307274.

B1: Histone chaperone RTT106 (Saccharomyces cerevisiae), P40161 (parent)
chain: MSKLFLDELPESLSRKIGTVVRVLPSSLEIFEELYKYALNENSNDRSGRHKKPRIDVSSDLLKTDEISETNTIFKLEGVSVLSPLRKKLDLVFYLSNVDGSPVITLLKGNDRELSIYQLNKNIKMASFLPVPEKPNLIYLFMTYTSCEDNKFSEPVVMTLNKENTLNQFKNLGLLDSNVTDFEKCVEYIRKQAILTGFKISNPFVNSTLVDTDAEKINSFHLQCHRGTKEGTLYFLPDHIIFGFKKPILLFDASDIESITYSSITRLTFNASLVTKDGEKYEFSMIDQTEYAKIDDYVKRKQMKDKSMSEELKAKSKSKGQATDGTADQPSILQEATRQMQDEKKAGVFSDDDEENDQNFEAESDLSDGSGQESSDGAEDGEEAEEDDEEDDEEEDKKGQSALNRDNSFASINGQPEQELQYKEFKEPLELEDIPIEIDNDDDEDDEDGSGVEYD

Variants of: B1
Settings: with h3_yeast HHT1, P61830

Variant	effect of a mutation on the interaction
MSKLFLDELPESLSRKIGTVVRVLPSSLEIFEELYKYALNENSNDRSGRHKKPRIDVSSDLLKTDEISETNTIFKLEGVSVLSPLRKKLDLVFYLSNVDGSPVITLLKGNDRELSIYQLNKNIKMASFLPVPEKPNLIYLFMTYTSCEDNKFSEPVVMTLNKENTLNQFKNLGLLDSNVTDFEKCVEYIRKQAILTGFKISNPFVNSTLVDTDAEKINSFHLQCHRGTKEGTLYFLPDHIIFGFKKPILLFDASDIESITYSSITRLTFNASLVTKDGEKYEFSMIDQTEYAKIDDAVKRKQMKDKSMSEELKAKSKSKGQATDGTADQPSILQEATRQMQDEKKAGVFSDDDEENDQNFEAESDLSDGSGQESSDGAEDGEEAEEDDEEDDEEEDKKGQSALNRDNSFASINGQPEQELQYKEFKEPLELEDIPIEIDNDDDEDDEDGSGVEYD [Y297A]	disrupting interaction strength
MSKLFLDELPESLSRKIGTVVRVLPSSLEIFEELYKYALNENSNDRSGRHKKPRIDVSSDLLKTDEISETNTIFKLEGVSVLSPLRKKLDLVFYLSNVDGSPVITLLKGNDRELSIYQLNKNIKMASFLPVPEKPNLIYLFMTYTSCEDNKFSEPVVMTLNKENTLNQFKNLGLLDSNVTDFEKCVEYIRKQAILTGFKISNPFVNSTLVDTDAEKINSFHLQCHRGTKEGTLYFLPDHIIFGFKKPILLFDASDIESATYSSITRLTFNASLVTKDGEKYEFSMIDQTEYAKIDDYVKRKQMKDKSMSEELKAKSKSKGQATDGTADQPSILQEATRQMQDEKKAGVFSDDDEENDQNFEAESDLSDGSGQESSDGAEDGEEAEEDDEEDDEEEDKKGQSALNRDNSFASINGQPEQELQYKEFKEPLELEDIPIEIDNDDDEDDEDGSGVEYD [I259A]	disrupting interaction strength
MSKLFLDELPESLSRKIGTVVRVLPSSLEIFEELYKYALNENSNDRSGRHKKPRIDVSSDLLKTDEISETNTIFKLEGVSVLSPLRKKLDLVFYLSNVDGSPVITLLKGNDRELSIYQLNKNIKMASFLPVPEKPNLIYLFMTYTSCEDNKFSEPVVMTLNKENTLNQFKNLGLLDSNVTDFEKCVEYIRKQAILTGFKISNPFVNSTLVDTDAEKINSFHLQCHRGTKEGTLYFLPDHIIFGFKKPILLFDASDIESITYSSITRLTFNASLVTKDGEKYEFSMIDQTEYAKIADYVKRKQMKDKSMSEELKAKSKSKGQATDGTADQPSILQEATRQMQDEKKAGVFSDDDEENDQNFEAESDLSDGSGQESSDGAEDGEEAEEDDEEDDEEEDKKGQSALNRDNSFASINGQPEQELQYKEFKEPLELEDIPIEIDNDDDEDDEDGSGVEYD [D295A]	disrupting interaction strength

Variants of: B1
Settings: with h3_yeast HHT1, P61830
Remark: another data set of the same source

Variant	effect of a mutation on the interaction
MSKLFLDELPESLSRKIGTVVRVLPSSLEIFEELYKYALNENSNDRSGRHKKPRIDVSSDLLKTDEISETNTIFKLEGVSVLSPLRKKLDLVFYLSNVDGSPVITLLKGNDRELSIYQLNKNIKMASFLPVPEKPNLIYLFMTYTSCEDNKFSEPVVMTLNKENTLNQFKNLGLLDSNVTDFEKCVEYIRKQAILTGFKISNPFVNSTLVDTDAEKINSFHLQCHRGTKEGTLYFLPDHIIFGFKKPILLFDASDIESATYSSITRLTFNASLVTKDGEKYEFSMIDQTEYAKIDDYVKRKQMKDKSMSEELKAKSKSKGQATDGTADQPSILQEATRQMQDEKKAGVFSDDDEENDQNFEAESDLSDGSGQESSDGAEDGEEAEEDDEEDDEEEDKKGQSALNRDNSFASINGQPEQELQYKEFKEPLELEDIPIEIDNDDDEDDEDGSGVEYD [I259A]	decreasing interaction strength
MSKLFLDELPESLSRKIGTVVRVLPSSLEIFEELYKYALNENSNDRSGRHKKPRIDVSSDLLKTDEISETNTIFKLEGVSVLSPLRKKLDLVFYLSNVDGSPVITLLKGNDRELSIYQLNKNIKMASFLPVPEKPNLIYLFMTYTSCEDNKFSEPVVMTLNKENTLNQFKNLGLLDSNVTDFEKCVEYIRKQAILTGFKISNPFVNSTLVDTDAEKINSFHLQCHRGTKEGTLYFLPDHIIFGFKKPILLFDASDIESITYSSITRLTANASLVTKDGEKYEFSMIDQTEYAKIDDYVKRKQMKDKSMSEELKAKSKSKGQATDGTADQPSILQEATRQMQDEKKAGVFSDDDEENDQNFEAESDLSDGSGQESSDGAEDGEEAEEDDEEDDEEEDKKGQSALNRDNSFASINGQPEQELQYKEFKEPLELEDIPIEIDNDDDEDDEDGSGVEYD [F269A]	disrupting interaction strength
MSKLFLDELPESLSRKIGTVVRVLPSSLEIFEELYKYALNENSNDRSGRHKKPRIDVSSDLLKTDEISETNTIFKLEGVSVLSPLRKKLDLVFYLSNVDGSPVITLLKGNDRELSIYQLNKNIKMASFLPVPEKPNLIYLFMTYTSCEDNKFSEPVVMTLNKENTLNQFKNLGLLDSNVTDFEKCVEYIRKQAILTGFKISNPFVNSTLVDTDAEKINSFHLQCHRGTKEGTLYFLPDHIIFGFKKPILLFDASDIESITYSSITRLTFNASLVTKDGEKYEFSMIDQTEAAKIDDYVKRKQMKDKSMSEELKAKSKSKGQATDGTADQPSILQEATRQMQDEKKAGVFSDDDEENDQNFEAESDLSDGSGQESSDGAEDGEEAEEDDEEDDEEEDKKGQSALNRDNSFASINGQPEQELQYKEFKEPLELEDIPIEIDNDDDEDDEDGSGVEYD [Y291A]	disrupting interaction strength
MSKLFLDELPESLSRKIGTVVRVLPSSLEIFEELYKYALNENSNDRSGRHKKPRIDVSSDLLKTDEISETNTIFKLEGVSVLSPLRKKLDLVFYLSNVDGSPVITLLKGNDRELSIYQLNKNIKMASFLPVPEKPNLIYLFMTYTSCEDNKFSEPVVMTLNKENTLNQFKNLGLLDSNVTDFEKCVEYIRKQAILTGFKISNPFVNSTLVDTDAEKINSFHLQCHRGTKEGTLYFLPDHIIFGFKKPILLFDASDIESITYSSITRLTFNASLVTKDGEKYEFSMIDATEYAKIDDYVKRKQMKDKSMSEELKAKSKSKGQATDGTADQPSILQEATRQMQDEKKAGVFSDDDEENDQNFEAESDLSDGSGQESSDGAEDGEEAEEDDEEDDEEEDKKGQSALNRDNSFASINGQPEQELQYKEFKEPLELEDIPIEIDNDDDEDDEDGSGVEYD [Q288A]	decreasing interaction strength
MSKLFLDELPESLSRKIGTVVRVLPSSLEIFEELYKYALNENSNDRSGRHKKPRIDVSSDLLKTDEISETNTIFKLEGVSVLSPLRKKLDLVFYLSNVDGSPVITLLKGNDRELSIYQLNKNIKMASFLPVPEKPNLIYLFMTYTSCEDNKFSEPVVMTLNKENTLNQFKNLGLLDSNVTDFEKCVEYIRKQAILTGFKISNPFVNSTLVDTDAEKINSFHLQCHRGTKEGTLYFLPDHIIFGFKKPILLFDASDIESITYSSITRLTFNASLVTKDGEKYEFSMIDQTEYAKADDYVKRKQMKDKSMSEELKAKSKSKGQATDGTADQPSILQEATRQMQDEKKAGVFSDDDEENDQNFEAESDLSDGSGQESSDGAEDGEEAEEDDEEDDEEEDKKGQSALNRDNSFASINGQPEQELQYKEFKEPLELEDIPIEIDNDDDEDDEDGSGVEYD [I294A]	disrupting interaction strength
MSKLFLDELPESLSRKIGTVVRVLPSSLEIFEELYKYALNENSNDRSGRHKKPRIDVSSDLLKTDEISETNTIFKLEGVSVLSPLRKKLDLVFYLSNVDGSPVITLLKGNDRELSIYQLNKNIKMASFLPVPEKPNLIYLFMTYTSCEDNKFSEPVVMTLNKENTLNQFKNLGLLDSNVTDFEKCVEYIRKQAILTGFKISNPFVNSTLVDTDAEKINSFHLQCHRGTKEGTLYFLPDHIIFGFKKPILLFDASDIESITASSITRLTFNASLVTKDGEKYEFSMIDQTEYAKIDDYVKRKQMKDKSMSEELKAKSKSKGQATDGTADQPSILQEATRQMQDEKKAGVFSDDDEENDQNFEAESDLSDGSGQESSDGAEDGEEAEEDDEEDDEEEDKKGQSALNRDNSFASINGQPEQELQYKEFKEPLELEDIPIEIDNDDDEDDEDGSGVEYD [Y261A]	disrupting interaction strength
